Experimental data published in publication PMC4001850 (Journal of Alzheimer's disease : JAD, 2011).
Where no end group is shown, it is not given here.

B1: eAβPP_(290-624), His-Patch thioredoxin fusion (52-kDa) (domain or fragment, human, UniProt P05067-4 290-624, looked up)
chain: PTTAASTPDAVDKYLETPGDENEHAHFQKAKERLEAKHRERMSQVMREWEEAERQAKNLPKADKKAVIQHFQEKVESLEQEAANERQQLVETHMARVEAMLNDRRRLALENYITALQAVPPRPRHVFNMLKKYVRAEQKDRQHTLKHFEHVRMVDPKKAAQIRSQVMTHLRVIYERMNQSLSLLYNVPAVAEEIQDEVDELLQKEQNYSDDVLANMISEPRISYGNDALMPSLTETKTTVELLPVNGEFSLDDLQPWHSFGADSVPANTENEVEPVDARPAADRGLTTRPGSGLTNIKTEEISEVKMDAEFRHDSGYEVHHQKLVFFAEDVGSNK
B2: eAβPP_(575-624), His-Patch thioredoxin fusion (20-kDa) (domain or fragment, human, UniProt P05067-4 575-624, looked up)
chain: LTTRPGSGLTNIKTEEISEVKMDAEFRHDSGYEVHHQKLVFFAEDVGSNK
modifications: also: His-Patch thioredoxin fusion (20 kDa), side not given here

Target: the molecule itself
Test: SEC

| Protein | stoichiometry N |
| --- | --- |
| B1 | ~2 |
| B2 | ~2 |
